Assay results reported in PMC11931385, “Structural and functional analysis of cancer-associated missense variants in the retinoblastoma protein pocket domain” (The Journal of Biological Chemistry, 2025).
No end group written: not given here. TMR = tetramethyl rhodamine dye

T1: Rb^P S474R (human, UniProt P06400 380-788, S474R)
T1 construct: also called variant 13
T1 sequence (looked up): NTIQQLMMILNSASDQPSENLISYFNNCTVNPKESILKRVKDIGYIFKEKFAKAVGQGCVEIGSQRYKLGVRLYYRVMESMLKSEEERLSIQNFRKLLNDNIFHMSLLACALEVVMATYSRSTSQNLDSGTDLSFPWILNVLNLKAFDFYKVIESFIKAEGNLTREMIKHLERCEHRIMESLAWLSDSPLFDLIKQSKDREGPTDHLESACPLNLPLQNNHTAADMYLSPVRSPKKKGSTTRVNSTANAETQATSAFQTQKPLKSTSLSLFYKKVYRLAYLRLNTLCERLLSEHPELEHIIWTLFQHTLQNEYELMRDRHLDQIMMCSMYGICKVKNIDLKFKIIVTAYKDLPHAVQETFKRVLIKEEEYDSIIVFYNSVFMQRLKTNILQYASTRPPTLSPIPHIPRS

T2: Rb^P S443L (human, UniProt P06400 380-788, S443L)
T2 construct: also called variant 2
T2 sequence (looked up): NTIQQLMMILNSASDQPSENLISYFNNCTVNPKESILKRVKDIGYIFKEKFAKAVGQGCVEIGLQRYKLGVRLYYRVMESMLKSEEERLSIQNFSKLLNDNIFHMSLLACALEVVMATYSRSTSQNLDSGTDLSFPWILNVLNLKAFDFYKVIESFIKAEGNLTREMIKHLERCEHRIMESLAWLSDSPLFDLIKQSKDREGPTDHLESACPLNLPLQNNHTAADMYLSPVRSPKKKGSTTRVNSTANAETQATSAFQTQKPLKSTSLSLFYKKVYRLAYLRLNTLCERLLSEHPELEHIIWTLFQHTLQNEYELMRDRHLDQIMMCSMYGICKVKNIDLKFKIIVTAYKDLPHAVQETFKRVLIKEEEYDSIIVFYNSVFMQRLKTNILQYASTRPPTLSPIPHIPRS

T3: Rb^P P595L (human, UniProt P06400 380-788, P595L)
T3 construct: also called variant 35
T3 sequence (looked up): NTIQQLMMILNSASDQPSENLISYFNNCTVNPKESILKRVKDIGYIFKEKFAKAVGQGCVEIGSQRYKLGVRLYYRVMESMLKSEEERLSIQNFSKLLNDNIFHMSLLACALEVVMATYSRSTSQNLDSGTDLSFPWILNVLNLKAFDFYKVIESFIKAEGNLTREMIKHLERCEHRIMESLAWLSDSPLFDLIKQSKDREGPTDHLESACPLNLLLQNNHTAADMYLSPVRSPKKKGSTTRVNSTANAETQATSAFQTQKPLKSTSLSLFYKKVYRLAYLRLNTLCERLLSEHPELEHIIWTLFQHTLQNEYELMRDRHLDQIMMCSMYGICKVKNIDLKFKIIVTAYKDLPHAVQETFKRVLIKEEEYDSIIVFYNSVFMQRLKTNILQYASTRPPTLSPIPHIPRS

T4: Rb^P R621H (human, UniProt P06400 380-788, R621H)
T4 construct: also called variant 42
T4 sequence (looked up): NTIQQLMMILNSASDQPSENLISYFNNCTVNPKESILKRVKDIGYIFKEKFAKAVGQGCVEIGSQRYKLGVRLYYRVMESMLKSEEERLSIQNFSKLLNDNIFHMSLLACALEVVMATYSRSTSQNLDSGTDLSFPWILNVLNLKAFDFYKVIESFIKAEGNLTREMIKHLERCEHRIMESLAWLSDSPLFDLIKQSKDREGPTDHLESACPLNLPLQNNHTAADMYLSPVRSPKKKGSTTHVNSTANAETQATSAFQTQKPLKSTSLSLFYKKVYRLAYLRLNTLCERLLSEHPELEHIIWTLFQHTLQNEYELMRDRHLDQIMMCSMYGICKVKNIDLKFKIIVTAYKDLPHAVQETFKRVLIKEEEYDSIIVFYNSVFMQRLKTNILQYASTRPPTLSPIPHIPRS

T5: Rb^P T664A (human, UniProt P06400 380-788, T664A)
T5 construct: also called variant 50
T5 sequence (looked up): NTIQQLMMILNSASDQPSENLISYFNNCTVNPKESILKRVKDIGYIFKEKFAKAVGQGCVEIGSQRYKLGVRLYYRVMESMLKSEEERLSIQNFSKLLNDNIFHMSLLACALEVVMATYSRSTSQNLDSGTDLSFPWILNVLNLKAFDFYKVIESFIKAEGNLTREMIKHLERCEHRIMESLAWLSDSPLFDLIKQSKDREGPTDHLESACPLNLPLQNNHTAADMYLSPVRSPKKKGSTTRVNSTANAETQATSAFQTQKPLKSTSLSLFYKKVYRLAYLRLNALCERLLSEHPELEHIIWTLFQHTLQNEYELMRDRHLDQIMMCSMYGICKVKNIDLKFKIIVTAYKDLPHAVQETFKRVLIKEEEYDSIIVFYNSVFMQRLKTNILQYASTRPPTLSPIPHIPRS


Key:
Assay in all cases: fluorescence polarisation; 37 °C, after the 25 °C reading ramped over 7 min to 37 °C and 2 min incubation; unlabeled Rb^P against 1.5 nM TMR-E2F1^TD or 7.5 nM TMR-E7^LxCxE; 25 mM Tris pH 8.0, 200 mM NaCl, 1 mM DTT, 0.1% Tween-20; apparent Kd
Conditions in all cases: both partners purified
Rb^P S474R = biological target: T1, Rb^P S474R
Rb^P S443L = biological target: T2, Rb^P S443L
Rb^P P595L = biological target: T3, Rb^P P595L
Rb^P R621H = biological target: T4, Rb^P R621H
Rb^P T664A = biological target: T5, Rb^P T664A

Binder	Kd (Rb^P S474R) [nM]	Kd (Rb^P S443L) [nM]	Kd (Rb^P P595L) [nM]	Kd (Rb^P R621H) [nM]	Kd (Rb^P T664A) [nM]
{TMR}-GEGIRDLFDCDFGDLTPLD (also called E2F^TD; source: synthetic peptide, bought: GenScript) [TMR-E2F1^TD, peptide of the E2F1 transactivation domain]	580	55	83	48	24
DLYCYEQLN (also: TMR label, position not given here, source: synthetic peptide, bought: GenScript) [TMR-E7^LxCxE, LxCxE peptide of the E7 oncoprotein from HPV]	15	21	32	18	16
